Substitutions are numbered along the chain they refer to. In names and notes the source's numbering stands.
B1: AmnEΔ49–59 (enzyme, Pseudomonas sp. AP-3, UniProt Q9KWS2 1-142, looked up)
chain: MVSKADNSAKLVEGKAKPMGSFPHVKRAGDFLFVSGTSSRRPDNTFVGNIELQTREVISNIRDILQSVGADLGDVVEVCSYLVNMNDFAAYNKVYAEFFDATGPARTTVAVHQLPHPQLVIEIKVVAYKPL
notes: 2-aminomuconate deaminase AmnE, Pseudomonas sp; AP-3, as m1 with residues Ala49-Pro59 of loop Lp2 deleted; The purification, including tag cleavage, is described once for the wild type and the mutants together; Trimer by SEC; also called AmnEΔLp2 (residues Ala49–Pro59); truncated mutant AmnEΔ49–59; source: E. coli BL21 (DE3) pLysS, purified (Ni-NTA, Resource Q, Superdex 75); not shown: His6, …
B2: 2-aminomuconate deaminase (AmnE) from Pseudomonas sp. AP-3, wild type (enzyme, UniProt Q9KWS2 1-142, looked up)
chain: MVSKADNSAKLVEGKAKPMGSFPHVKRAGDFLFVSGTSSRRPDNTFVGAEPDDTGRPRPNIELQTREVISNIRDILQSVGADLGDVVEVCSYLVNMNDFAAYNKVYAEFFDATGPARTTVAVHQLPHPQLVIEIKVVAYKPL
notes: 2-aminomuconate deaminase AmnE, Pseudomonas sp; AP-3; protomer of 142 residues; Hexamer made of two trimers, by crystal structure, SEC and cross-linking; the database entry may name the gene amnD; After thrombin cleavage a few vector residues may remain at the N-terminus (surmised); also called wild-type AmnE; source: E. coli BL21 (DE3) pLysS, purified (Ni-NTA, Resource Q, Superdex 75); not …
B3: AmnE R56A (enzyme, Pseudomonas sp. AP-3, UniProt Q9KWS2 1-142, looked up)
chain: B2 chain with R56A
notes: 2-aminomuconate deaminase AmnE, Pseudomonas sp; AP-3, as m1 with R56A; The purification, including tag cleavage, is described once for the wild type and the mutants together; Trimer by SEC; also called single mutant of AmnE R56A; source: E. coli BL21 (DE3) pLysS, purified (Ni-NTA, Resource Q, Superdex 75); not shown: His6, N-terminal, cleaved
B4: AmnE P126A (enzyme, Pseudomonas sp. AP-3, UniProt Q9KWS2 1-142, looked up)
chain: B2 chain with P126A
notes: 2-aminomuconate deaminase AmnE, Pseudomonas sp; AP-3, as m1 with P126A; The purification, including tag cleavage, is described once for the wild type and the mutants together; Hexamer by SEC; also called mutant AmnE P126A; source: E. coli BL21 (DE3) pLysS, purified (Ni-NTA, Resource Q, Superdex 75); not shown: His6, N-terminal, cleaved

Molecular target: the molecule itself
Assay: SEC; analytic Superdex 200 10/300 GL; 1 mg/ml; 50 mM HEPES, 150 mM NaCl, 1 mM DTT, 1 mM EDTA, 5% glycerol, pH 8.0; 0.3 ml/min, 16°C; mass calculated from the elution volume

In order of rising “stoichiometry N” value:
1. B1  3
2. B3  3
3. B2  6
4. B4  6

Reference: PMC6742747, “A Unique Homo-Hexameric Structure of 2-Aminomuconate Deaminase in the Bacterium Pseudomonas species AP–3” (Frontiers in Microbiology, 2019)
